Positions count from the first letter of the chain named.
Legend:
cellular chromatin = test: Chromatin appearance in inducible cell lines (immunofluorescence, DAPI); type: cell-based; details: inducible expression
Excerpt: Primary small airway epithelial cells (SAECs), U2OS, HeLa, 293, THP-1 and A549 cells were obtained from the American Tissue Culture Collection (ATCC) and grown according to the provider's instructions. Acceptor cells for generation of inducible cell lines were used as reported (Khandelia et al. (2011) Proc. Natl. Acad. Sci., 108:12799-12804). Protein VII, preVII and V were cloned from genomic DNA isolated from HeLa cells infected with adenovirus type 5 and inserted into the inducible plasmid cassette with a C-terminal HA tag using restriction enzymes BsrGI and AgeI. Positive clones were selected in DH5a cells, sequenced, and transfected into A549, U2OS or HeLa acceptor cells along with plasmid expressing the Cre recombinase. Recombined clones were selected by puromycin resistance (1 μg/mL) and induced with doxycycline (0.2 μg/mL) to express the desired protein. Protein expression was verified by immunofluorescence and western blot. All figures shown are after 4 days of induction unless otherwise stated. Protein VII and preVII were also verified by HPLC purification and mass spectrometry analysis. Point mutations were generated by gene synthesis from Genewiz.
Cells were grown on glass coverslips in 24-well plates and either infected or induced with doxycycline (0.2 μg/mL). […]

HMGB1 [1] = target: T1, HMGB1 (Homo sapiens, UniProt P09429); test: In vitro binding assay: recombinant protein VII-His with HMGB1-GST, cobalt resin pull-down; details: equimolar HMGB1-GST and protein VII-His
T1 sequence (P09429 1-215): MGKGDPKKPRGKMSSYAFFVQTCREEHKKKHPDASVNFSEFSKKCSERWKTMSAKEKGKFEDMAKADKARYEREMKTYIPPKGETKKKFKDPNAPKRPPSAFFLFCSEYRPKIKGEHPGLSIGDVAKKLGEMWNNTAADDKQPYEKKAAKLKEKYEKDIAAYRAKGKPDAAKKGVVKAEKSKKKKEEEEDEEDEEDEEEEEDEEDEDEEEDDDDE
Procedure: HMGB1-GST (Abnova) or GST (Sigma) were combined with recombinant protein VII-His at equimolar ratios and incubated at 4° C. for 1 hour. Complexes were then mixed with a cobalt resin (ThermoScientific 89964) to bind protein VII-His and any associated protein and washed three times in the binding buffer (50 mM Tris pH 8, 300 mM NaCl, 0.1% IGEPAL). The beads were then boiled in sample buffer, separated on a 4-12% NuPage gel and visualized by coomassie staining.

DNA = test: Gel shift of recombinant protein VII-His with 195 bp DNA; type: binding; details: purified recombinant protein
Procedure: Gel shift and MNase digestion assays were carried out as described (Falk et al. (2015) Science 348:699-703; Hasson et al. (2013) Nat. Struct. Mol. Biol., 20:687-695; Sekulic et al. (2010) Nature 467:347-351). Briefly, nucleosomes were reconstituted by incubating purified recombinant histones with ‘601’ DNA of either 195 or 147 bp over a series of dialysis. Recombinant protein VII-His was then combined with nucleosomes at various molar ratios, incubated at room temperature for 15 minutes, and analyzed by native gel electrophoresis. Complexes were also digested with MNase (Affymetrix) by addition of 1 unit per μg of DNA for 147 bp nucleosome experiments and 0.1 unit per μg of DNA for 195 bp nucleosome experiments, incubated at 22° C. for varying amounts of time followed by the addition of EGTA and guanidine thiocyanate to stop the reaction. The DNA fragments were then purified using a MinElute PCR purification kit (Qiagen) and analyzed on an Agilent 2100 Bioanalyzer as described (Falk et al. (2015) Science 348:699-703).

mouse HMGB1 = target: T2, mouse HMGB1 (Mus musculus, UniProt P63158); test: Mouse embryonic fibroblast (MEF) cells transduced to express protein VII-GFP: immunofluorescence and salt fractionation; type: cell-based
T2 construct: endogenous in cells; host or cells: mouse embryonic fibroblasts (MEF)
T2 sequence (P63158 1-215): T1 sequence (P09429 1-215) with E189D, D202E
Procedure: Cells were grown on glass coverslips in 24-well plates and either infected or induced with doxycycline (0.2 μg/mL). Cells were harvested for immunofluorescence at the indicated time points, washed in phosphate-buffered saline (PBS), fixed in 4% paraformaldehyde for 15 minutes and post-fixed with 100% ice-cold methanol for 5 minutes. Coverslips were then blocked and stained as described (Lilley et al. (2011) PLoS Pathog., 7:e1002084) and mounted using ProLong Gold Antifade Reagent (Life Technologies). Immunofluorescence was visualized using a Zeiss LSM Confocal microscope and ZEN 2011 software. Images were processed using ImageJ and assembled with Adobe CS6. All scale bars show in the Figures are 10 μm unless otherwise stated.
Salt fractionation of nuclei was adapted from established protocols (Zaret, K. (2005) Micrococcal nuclease analysis of chromatin structure. Curr. Protoc. Mol., Biol. Chapter 21, Unit 21.1; Teves et al. (2012) Methods Mol. Biol., 833:421-432). […] The final pellet was resuspended in 400 μL ddH2O and all samples were analyzed together by western blot. An aliquot of each supernatant was set aside for DNA purification using a PCR purification kit (Qiagen) and analyzed by agarose gel electrophoresis. […]

HMGB2 = target: T3, HMGB2 (Homo sapiens, UniProt P26583); test: Release assay of HMGB2 in THP-1 cells; type: cell-based; details: PMA-treated THP-1 cells, LPS plus nigericin
T3 construct: endogenous in cells; host or cells: THP-1 (PMA-differentiated)
T3 sequence (P26583 1-209): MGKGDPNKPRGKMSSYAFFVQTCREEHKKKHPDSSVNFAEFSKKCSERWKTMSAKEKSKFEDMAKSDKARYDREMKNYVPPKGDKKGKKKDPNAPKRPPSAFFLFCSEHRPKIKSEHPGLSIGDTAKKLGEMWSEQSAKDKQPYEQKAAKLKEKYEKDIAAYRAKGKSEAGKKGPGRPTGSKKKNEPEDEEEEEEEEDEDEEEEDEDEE
Procedure: (§1) THP-1 cells were seeded at a density of 2×10^5 cells per well in a 24-well plate, and stimulated into macrophage-like cells by addition of 10 ng/mL PMA for 48 hours. Cells were washed in PBS and transduced with recombinant adenovirus vectors expressing only GFP or protein VII-GFP such that >90% of cells were GFP positive. At 48 hours post transduction, cells were washed and 200 μL of serum free RPMI was added. To stimulate the inflammasome, LPS (Sigma-Aldrich L2880) with a final concentration of 0.5 μg/mL was added to wells and incubated for 2 hours, then nigericin (Sigma-Aldrich N7143) was added with a final concentration of 10 μM for 1 hour. Supernatants were collected and proteins precipitated overnight at 4° C. with a final concentration of 20% trichloroacetic acid (Sigma), washed with acetone, dried, and resuspended in 1×sample buffer with reducing agent (Invitrogen). For ELISA analysis, supernatants were harvested directly and HMGB1 content was detected by the manufacturer's instructions (Chondrex 6010). Cells were also harvested by the addition of 1×sample buffer with reducing agent (Invitrogen) and boiled. Supernatants and lysates were analyzed together by western blot.

HMGB1 [2] = target: T1, HMGB1; test: Release assay of HMGB1 in THP-1 cells; type: cell-based; design: endogenous in cells; details: PMA-treated THP-1 cells, LPS plus nigericin
Procedure: as §1

LPS induced lung injury = test: Murine model of LPS induced lung injury, BAL fluid analysis; type: in vivo, mouse; details: 24 hours after LPS exposure, versus mice expressing GFP
Procedure: All mice were housed in SPF conditions. All studies in mice were carried out in accordance with the recommendations in the Guide for the Care and Use of Laboratory Animals of the National Institutes of Health. C57BL/6J male mice aged 8-10 weeks were used for experiments. Mice were sedated with ketamine and xylazine. Once sedated, mice underwent orotrachial intubation, as described (Das et al. (2013) J. Vis. Exp., (73):e50318), with a 20G angiocatheter from BD (Franklin Lakes, N.J.). Mice subsequently received 5e10 GC of recombinant adenovirus expressing VII-GFP or GFP purified as described above. Four days after infection, mice were exposed to aerosolized LPS, 3 mg/mL for 30 minutes as described (Jeyaseelan et al. (2004) Infect. Immun., 72:7247-7256). One day after LPS exposure, BAL, and lung tissue were harvested as detailed (Nick et al. (2000) J. Immunol., 164:2151-2159) and examined for HMGB1 content (ELISA, Chondrex 6010) and neutrophil count (hematoxylin and eosin stain kit EMD 65044/93). Immunostaining was carried out using standard methods. A minimum of four biological replicates were used for each condition studied. Mice were assigned a random number and color at the start of the experiment and were randomized. Technicians carrying out the experiments were blinded to the identity of the samples. Tissue samples were assigned a random study number such that the technician performing the analysis was blinded. Unblinding for the purpose of data analysis occurred only after all data had been collected.

For “PRM1: human protamine PRM1, a basic protein involved in sperm DNA compaction (ARYRCCRSQSRSRYYRQRQRSRRRRRRSCQTRRRAMRCCRPRYRPRCRRH; UniProt P04553 2-51, looked up) [reference compound]”, the “Effect on chromatin appearance” value (cellular chromatin) was “did not affect chromatin appearance”.

B1: recombinant protein VII: Ad5 protein VII with C-terminal hexahistidine tag, purified from E. coli (protein)
chain: AKKRSDQHPVRVRGHYRAPWGAHKRGRTGRTTVDDAIDAVVEEARNYTPTPPPVSTVDAAIQTVVRGARRYAKMKRRRRRVARRHRRRPGTAAQRAAAALLNRARRTGRRAAMRAARRLAAGIVTVPPRSRRRAAAAAAAAISAMTQGRRGNVYWVRDSVSGLRVPVRTRPPRN
modifications: left off: small tags and cut ends
notes: Ad5 protein VII with C-terminal hexahistidine tag, purified from E. coli
For B1, the “Direct binding of recombinant protein VII to HMGB1 in vitro” value (HMGB1 [1]) was “Direct binding” and the DNA binding (DNA) was “binds to DNA”.

B2: protein VII-GFP (protein)
chain: B1 chain
modifications: left off: large carriers
For B2, the “Relocalization of mouse HMGB1” value (mouse HMGB1) was “sufficient to relocalize mouse HMGB1”, the “Retention of mouse HMGB1 in the high salt fraction” value (mouse HMGB1) was “sufficient to retain mouse HMGB1 in the high salt fraction” and the HMGB2 in supernatants (HMGB2) was “sufficient to inhibit HMGB1 and HMGB2 release”. The HMGB1 in supernatants (HMGB1 [2]) was “sufficient to inhibit HMGB1 and HMGB2 release”, the “HMGB1 in BAL fluid” value (LPS induced lung injury) was “decreases HMGB1” and the “Neutrophils in BAL fluid” value (LPS induced lung injury) was “significantly fewer”.
